Results as given in patent KR20200132110A (dated 2020).

Experiments:
[1] = molecular target: CD71 (on cancer stem cells and cancer cell lines) (UniProt P02786 1-760, limits assumed); test: cell-based or functional assay
BSA = molecular target: T1, BSA (UniProt P02769 25-607); test: ELISA, 100 nM coated protein
T1 construct: Negative control

CTLA-4 = molecular target: T2, CTLA-4 (UniProt P16410 36-161, limits assumed); test: ELISA, 100 nM coated protein
T2 construct: Negative control; The construct is not described
T2 sequence (looked up): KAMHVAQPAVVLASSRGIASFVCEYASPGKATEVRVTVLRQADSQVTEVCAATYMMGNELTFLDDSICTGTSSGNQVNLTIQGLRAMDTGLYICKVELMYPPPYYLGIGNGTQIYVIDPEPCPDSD

CD71 (on cancer stem cells and cancer cell lines), sequence (P02786 whole entry): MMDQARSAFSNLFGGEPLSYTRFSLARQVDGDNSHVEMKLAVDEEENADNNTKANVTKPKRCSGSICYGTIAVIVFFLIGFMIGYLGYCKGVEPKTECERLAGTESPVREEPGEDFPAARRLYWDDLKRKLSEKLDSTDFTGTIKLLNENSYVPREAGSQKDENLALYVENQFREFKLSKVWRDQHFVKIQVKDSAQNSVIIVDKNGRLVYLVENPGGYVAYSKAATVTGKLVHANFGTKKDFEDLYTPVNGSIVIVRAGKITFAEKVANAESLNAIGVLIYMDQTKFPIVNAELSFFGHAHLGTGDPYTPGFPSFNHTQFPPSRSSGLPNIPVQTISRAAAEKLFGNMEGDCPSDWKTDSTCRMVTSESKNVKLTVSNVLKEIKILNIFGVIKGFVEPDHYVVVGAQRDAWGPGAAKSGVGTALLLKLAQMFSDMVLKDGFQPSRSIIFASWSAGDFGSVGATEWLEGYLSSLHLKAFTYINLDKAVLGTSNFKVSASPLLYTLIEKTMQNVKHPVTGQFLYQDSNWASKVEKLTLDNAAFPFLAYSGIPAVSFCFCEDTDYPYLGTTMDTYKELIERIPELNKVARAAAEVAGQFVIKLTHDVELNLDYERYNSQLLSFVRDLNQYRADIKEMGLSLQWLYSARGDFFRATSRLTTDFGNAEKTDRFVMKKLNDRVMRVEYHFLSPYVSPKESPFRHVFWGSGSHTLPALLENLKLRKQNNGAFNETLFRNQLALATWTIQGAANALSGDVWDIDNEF
T1 sequence (P02769 25-607 limits assumed): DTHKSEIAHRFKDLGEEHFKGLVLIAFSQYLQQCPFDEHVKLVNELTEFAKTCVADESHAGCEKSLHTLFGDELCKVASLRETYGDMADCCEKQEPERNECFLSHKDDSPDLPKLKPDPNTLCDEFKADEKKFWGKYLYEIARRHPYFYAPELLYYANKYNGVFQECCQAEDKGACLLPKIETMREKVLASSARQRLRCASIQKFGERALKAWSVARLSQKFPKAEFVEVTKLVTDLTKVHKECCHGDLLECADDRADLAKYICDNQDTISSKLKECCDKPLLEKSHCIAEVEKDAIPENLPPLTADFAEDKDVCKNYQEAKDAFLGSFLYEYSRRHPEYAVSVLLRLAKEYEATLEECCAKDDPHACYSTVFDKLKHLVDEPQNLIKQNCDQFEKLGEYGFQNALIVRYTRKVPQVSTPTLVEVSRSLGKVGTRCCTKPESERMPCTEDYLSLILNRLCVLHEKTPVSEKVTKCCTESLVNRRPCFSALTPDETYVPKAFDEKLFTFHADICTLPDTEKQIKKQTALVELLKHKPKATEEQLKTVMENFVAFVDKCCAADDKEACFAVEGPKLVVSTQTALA

B1: 1E12 항체 (antibody, V domains shown)
VH: QMQLVQSGAEVKKPGASVKVSCKASGYIFTDYYMHWVRQAPGQGLEWMGGISPIFGTANYAQNFQGRVTITADESTTTAYMELSNLRSEDTAVYYCAKDGAGPEYYYYGLDVWGQGTSVTVSS
VL: QSALTQPPSVSGSPGQSVTISCTGTSSDIGGYNYVSWYQHHPGKAPKLVISEVTKRPSGVPGRFSGSKSGNTASLTVSGLQAEDEADYYCSSYSDSDNLLFGGGTKLTVLG
notes: also called b) 단클론 항체
- EC50 세포성장 저해, parent암 세포주 (AlamarBlue) [1]: 18.3 nM
- EC50 세포성장 저해, 암 줄기세포주 (AlamarBlue) [1]: 53.3 nM
- binding result (BSA): no binding (tested: 1μg/mL)
- binding result (CTLA-4): no binding (tested: 1μg/mL)
